Assay [1] concerns the target PTH receptor (PTHR1 receptor) endogenously expressed by rat osteosarcoma UMR-106 cells (rat) (UniProt P25961). The assay can be described thus: cell-based or functional assay.
In assay [2] the target is T1, human RANKL (receptor activator of nuclear factor kappa-B ligand) (human, UniProt O14788 140-317, limits assumed).
T1 sequence (looked up): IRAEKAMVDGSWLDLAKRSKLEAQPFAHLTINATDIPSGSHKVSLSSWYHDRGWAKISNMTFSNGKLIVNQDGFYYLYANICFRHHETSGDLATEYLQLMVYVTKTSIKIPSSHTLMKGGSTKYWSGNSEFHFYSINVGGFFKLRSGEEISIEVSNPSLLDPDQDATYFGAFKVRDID
The assay can be described thus: cell-based or functional assay.

Chain of PTH receptor (PTHR1 receptor) endogenously expressed by rat osteosarcoma UMR-106 cells (rat) (P25961 27-591): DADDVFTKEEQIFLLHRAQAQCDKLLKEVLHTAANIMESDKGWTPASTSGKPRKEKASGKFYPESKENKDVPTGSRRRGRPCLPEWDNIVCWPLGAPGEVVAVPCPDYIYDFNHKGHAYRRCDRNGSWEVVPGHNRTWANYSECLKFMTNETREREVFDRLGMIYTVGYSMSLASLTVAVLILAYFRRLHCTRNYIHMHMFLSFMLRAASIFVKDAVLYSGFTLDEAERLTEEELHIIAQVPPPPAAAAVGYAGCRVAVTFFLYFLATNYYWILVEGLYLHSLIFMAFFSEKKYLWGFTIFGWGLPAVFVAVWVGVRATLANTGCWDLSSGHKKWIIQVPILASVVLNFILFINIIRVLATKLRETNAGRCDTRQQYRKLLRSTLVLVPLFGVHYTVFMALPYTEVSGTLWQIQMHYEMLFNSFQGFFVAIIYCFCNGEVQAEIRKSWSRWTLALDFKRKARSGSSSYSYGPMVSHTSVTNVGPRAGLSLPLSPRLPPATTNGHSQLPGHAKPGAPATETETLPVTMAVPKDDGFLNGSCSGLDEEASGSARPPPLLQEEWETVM

In assay [1], “PTH peptide (a 38 amino acid parathyroid hormone peptide)” yielded an EC50 (nM); PTHR1 activation, CRE-regulated luciferase luminescence in UMR-106 cells of 5.6 nM.

B1: RANKL neutralizing antibody (an IgG4 RANKL mAb having the same HC and LC amino acid sequences as the mAb portion of the exemplified fusion compound) (antibody, V domains shown)
VH: QVQLVQSGAEVKKPGSSVKVSCKASGYAFTNYYIEWVRQAPGQGLEWMGVINPGWGDTNYNEKFKGRVTITADKSTSTAYMELSSLRSEDTAVYYCARRDTAHGYYALDPWGQGTTVTVSS
VL: DIQMTQSPSSLSASVGDRVTITCKASQNVGTNVAWYQQKPGKAPKLLIYSASYRYSGVPSRFSGSGSGTDFTLTISSLQPEDFATYYCQQYWDYPLTFGGGTKVEIKR
B1: the “IC50 (nM) hRANKL; neutralization of RANKL-induced NF-kB driven luciferase luminescence” value in assay [2] turned out to be 0.069 nM.

The values above are taken from patent publication US20200354427A1 (Eli Lilly, published 2020).
